This is an account of results in the supplement of paper PMC7877785.

± gives the uncertainty stated by the source.

This data set in a line: self-splicing fitness, log relative to wild type (ln ratio); higher = more splicing; Tetrahymena group I intron in knt gene, E. coli kanamycin selection, DiMSum; sequences stand for … in CUCUCU…GGAGGGAAAAGUUAUCAGGCAUGCACCUGGUAGCUAGUCUUUAAACCAAUAGAUUGCAUCGGUUUAAAAGGCAAGACCGUCAAAUUGCGGGAAAGGGGUCAACAGCCGUUCAGUACCAAGUCUCAGGGGAAACUUUGAGAUGGCCUUGCAAAGGGUAUGGUAAUAAGCUGACGGACAUGGUCCUAACCACGCAGCCAAGUCCUAAGUCAACAGAUCUUCUGUUGAUAUGGAUGCAGUUCACAGACUAAAUGUCGGUCGGGGAAGAUGUAUUCUUCUCAUAAGAUAUAGUCGGACCUCUCCUUAAUGGGAGCUAGCGGAUGAAGUGAUGCAACACUGGAGCCGCUGGGAACUAAUUUGUAUGCGAAAGUAUAUUGAUUAGUUUUGGAGUACUCGUGGUCG
A digest of the protocol: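 Pooled colonies went to amplicon sequencing on an Illumina HiSeq 2500 after six replicate transformations. The plates were LB agar with 100 μg/mL carbenicillin, 50 μM IPTG and 0.2% rhamnose, with or without 25 μg/mL kanamycin, incubated overnight at 37°C or 30°C. The E. coli BL21(DE3) library had all eight P1ex-region intron nucleotides randomised, the intron placed in the knt kanamycin-resistance gene on pET-22b(+). DiMSum fitness is the error-weighted combination of replicate fold changes, kanamycin against none, normalised to wild type.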

Consider AUAGAGCAAUAUUACGCUUG, for which the “self-splicing fitness (ln)” value is -0.549 ± 0.12 (30 °C) and -0.411 ± 0.13 (37 °C). In the same order, the values of GCGAAGCAAUAUUACGUGGC are -3.33 ± 0.39 and -2.35 ± 0.44.

On to GCUAAGCAAUAUUACGAACG, for which the “self-splicing fitness (ln)” value reads like this: (30 °C) -0.806 ± 0.068; (37 °C) 0.22 ± 0.097. As to CAAAAGCAAUAUUACGGGUU, the “self-splicing fitness (ln)” value is, setting by setting: (30 °C) -3.28 ± 0.14; (37 °C) -2.46 ± 0.16. The matching figures for UAUAAGCAAUAUUACGCGAU: -3.6 ± 0.21 and -3.37 ± 0.22.

For the sequence UAUCAGCAAUAUUACGCAUA, the “self-splicing fitness (ln)” value was -0.316 ± 0.11 (30 °C) and 0.0108 ± 0.11 (37 °C). The matching figures for UUGUAGCAAUAUUACGAGCA: -1.49 ± 0.24 and -0.799 ± 0.2. For CCCAAGCAAUAUUACGAUCG, the “self-splicing fitness (ln)” value was -3.46 ± 0.19 (30 °C) and -2.93 ± 0.19 (37 °C).

As for UGCCAGCAAUAUUACGAUUG, the “self-splicing fitness (ln)” value runs as follows: (30 °C) -1.63 ± 0.078; (37 °C) -0.196 ± 0.086.

For GUGUAGCAAUAUUACGGUGA, the “self-splicing fitness (ln)” value (30 °C) is -1.45 ± 0.11 and the “self-splicing fitness (ln)” value (37 °C) was -0.916 ± 0.14.

Consider UCGUAGCAAUAUUACGACUG, for which the “self-splicing fitness (ln)” value was -1.02 ± 0.2 (30 °C) and -2.28 ± 0.34 (37 °C). The matching figures for UAAUAGCAAUAUUACGUGAA: -1.38 ± 0.1 and -1.22 ± 0.14. For the sequence CAAUAGCAAUAUUACGUACU, the “self-splicing fitness (ln)” value (30 °C) was -3.33 ± 0.13 and the “self-splicing fitness (ln)” value (37 °C) is -1.8 ± 0.13. As for AAAAAGCAAUAUUACGUAAA, the “self-splicing fitness (ln)” value by setting is: (30 °C) -1.82 ± 0.086; (37 °C) -1.19 ± 0.09. With ACAGAGCAAUAUUACGUCAG, the “self-splicing fitness (ln)” value reads like this: (30 °C) -3.02 ± 0.13; (37 °C) -2.43 ± 0.2. On to GGGUAGCAAUAUUACGUUUU, for which the “self-splicing fitness (ln)” value is -1.31 ± 0.063 (30 °C) and -0.826 ± 0.1 (37 °C).

For the sequence UUAAAGCAAUAUUACGCGAG, the “self-splicing fitness (ln)” value is -0.116 ± 0.071 (30 °C) and 0.3 ± 0.085 (37 °C). Regarding GGAUAGCAAUAUUACGAUAU, the “self-splicing fitness (ln)” value reads like this: (30 °C) -0.868 ± 0.14; (37 °C) -0.583 ± 0.19. As to CAACAGCAAUAUUACGGGAG, the “self-splicing fitness (ln)” value was -1.23 ± 0.051 (30 °C) and -1.03 ± 0.063 (37 °C). The matching figures for CUUAAGCAAUAUUACGACAC: -3.04 ± 0.38 and -1.54 ± 0.44. The matching figures for CCGCAGCAAUAUUACGCGCC: -2.71 ± 0.25 and -2.02 ± 0.47.

For AUACAGCAAUAUUACGAGGA, the “self-splicing fitness (ln)” value by setting is: (30 °C) -3.26 ± 0.19; (37 °C) -0.911 ± 0.12. For AGAUAGCAAUAUUACGUAGG, the “self-splicing fitness (ln)” value was -3.49 ± 0.17 (30 °C) and -1.41 ± 0.18 (37 °C). Take CUGUAGCAAUAUUACGGGUG: the “self-splicing fitness (ln)” value is -0.818 ± 0.084 (30 °C) and -1.15 ± 0.099 (37 °C). For UGGUAGCAAUAUUACGCGUC, the “self-splicing fitness (ln)” value is, setting by setting: (30 °C) -3.94 ± 0.43; (37 °C) -2.52 ± 0.35. The matching figures for GUAGAGCAAUAUUACGUCUG: -1.6 ± 0.15 and -1.58 ± 0.21. With GCCCAGCAAUAUUACGGUAU, the “self-splicing fitness (ln)” value is -0.47 ± 0.055 (30 °C) and -0.0153 ± 0.068 (37 °C). Regarding UUAAAGCAAUAUUACGCAGC, where the note is “37 °C”, the “self-splicing fitness (ln)” value is -2.68 ± 0.47. With GCCAAGCAAUAUUACGUUCA, the “self-splicing fitness (ln)” value is -2.12 ± 0.11 (30 °C) and -0.947 ± 0.12 (37 °C). In the same order, the values of CACUAGCAAUAUUACGAGCU are -3.44 ± 0.18 and -2.75 ± 0.17. As for CUAAAGCAAUAUUACGGAUC, the “self-splicing fitness (ln)” value (30 °C) is -2.3 ± 0.21. For the sequence AUCCAGCAAUAUUACGGUAC, the “self-splicing fitness (ln)” value runs as follows: (30 °C) -1.77 ± 0.12; (37 °C) -0.693 ± 0.14. With UGCCAGCAAUAUUACGCCGG, the “self-splicing fitness (ln)” value by setting is: (30 °C) -4.03 ± 0.21; (37 °C) -3.05 ± 0.25. Regarding UCCUAGCAAUAUUACGGUAU, the “self-splicing fitness (ln)” value is -3.23 ± 0.16 (30 °C) and -1.76 ± 0.18 (37 °C).

Regarding GGUGAGCAAUAUUACGACAG, the “self-splicing fitness (ln)” value (30 °C) is -3.05 ± 0.41. For the sequence GGCCAGCAAUAUUACGCGCC, the “self-splicing fitness (ln)” value (30 °C) was -3.11 ± 0.24 and the “self-splicing fitness (ln)” value (37 °C) was -2.05 ± 0.44. With UCGUAGCAAUAUUACGAAUG, under “30 °C”, the “self-splicing fitness (ln)” value was -2.01 ± 0.29. As to CCGGAGCAAUAUUACGUAUC, the “self-splicing fitness (ln)” value (37 °C) is -2.58 ± 0.29.

On to UCGCAGCAAUAUUACGUCAU, for which the “self-splicing fitness (ln)” value is -3.77 ± 0.14 (30 °C) and -2.65 ± 0.13 (37 °C).
